Test results reported in US20070293656A1, “COLLAGEN BINDING PEPTIDES” (Epix Pharmaceuticals, Inc., priority 2005, published 2007).
Bridge positions count the residues as written; N and C are the ends. Ends that are not written are not given here.

target: T1, human collagen type I (acid soluble, extracted from placenta, Sigma C7774) (human, UniProt P02452 162-1218; P08123 80-1119); assay: dried collagen assay
T1 construct: gelled and dried as a fibril film in the assay; also called dried human collagen; h-Collagen
T1 sequence (P02452 162-1218 limits assumed, chain 1 of 2): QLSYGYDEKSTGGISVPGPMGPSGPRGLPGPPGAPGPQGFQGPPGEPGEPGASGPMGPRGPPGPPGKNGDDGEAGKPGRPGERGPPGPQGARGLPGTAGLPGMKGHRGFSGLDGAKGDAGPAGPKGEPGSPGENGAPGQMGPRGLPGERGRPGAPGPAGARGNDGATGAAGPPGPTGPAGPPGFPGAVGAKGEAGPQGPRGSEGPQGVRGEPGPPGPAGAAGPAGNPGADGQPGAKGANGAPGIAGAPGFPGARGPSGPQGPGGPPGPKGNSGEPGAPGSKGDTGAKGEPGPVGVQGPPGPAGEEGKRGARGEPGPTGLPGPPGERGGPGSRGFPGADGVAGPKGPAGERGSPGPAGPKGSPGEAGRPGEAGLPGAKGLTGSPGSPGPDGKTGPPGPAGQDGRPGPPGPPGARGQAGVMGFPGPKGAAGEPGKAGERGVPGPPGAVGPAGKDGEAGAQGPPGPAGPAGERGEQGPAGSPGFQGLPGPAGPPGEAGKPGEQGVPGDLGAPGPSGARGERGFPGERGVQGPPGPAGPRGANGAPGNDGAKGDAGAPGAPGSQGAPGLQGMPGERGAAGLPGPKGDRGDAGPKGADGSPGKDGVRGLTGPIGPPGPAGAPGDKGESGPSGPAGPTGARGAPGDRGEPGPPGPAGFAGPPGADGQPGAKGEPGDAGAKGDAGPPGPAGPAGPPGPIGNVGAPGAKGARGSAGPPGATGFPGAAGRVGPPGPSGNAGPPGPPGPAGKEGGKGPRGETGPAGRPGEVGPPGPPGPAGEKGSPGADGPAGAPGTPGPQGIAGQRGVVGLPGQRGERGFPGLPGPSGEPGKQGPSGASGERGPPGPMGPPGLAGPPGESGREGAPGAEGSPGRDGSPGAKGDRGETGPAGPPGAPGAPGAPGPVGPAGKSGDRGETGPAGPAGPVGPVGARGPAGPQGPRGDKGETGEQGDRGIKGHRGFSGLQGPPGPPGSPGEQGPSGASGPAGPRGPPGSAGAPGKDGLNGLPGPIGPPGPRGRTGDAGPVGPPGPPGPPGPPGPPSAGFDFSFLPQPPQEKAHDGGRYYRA
T1 sequence (P08123 80-1119 limits assumed, chain 2 of 2): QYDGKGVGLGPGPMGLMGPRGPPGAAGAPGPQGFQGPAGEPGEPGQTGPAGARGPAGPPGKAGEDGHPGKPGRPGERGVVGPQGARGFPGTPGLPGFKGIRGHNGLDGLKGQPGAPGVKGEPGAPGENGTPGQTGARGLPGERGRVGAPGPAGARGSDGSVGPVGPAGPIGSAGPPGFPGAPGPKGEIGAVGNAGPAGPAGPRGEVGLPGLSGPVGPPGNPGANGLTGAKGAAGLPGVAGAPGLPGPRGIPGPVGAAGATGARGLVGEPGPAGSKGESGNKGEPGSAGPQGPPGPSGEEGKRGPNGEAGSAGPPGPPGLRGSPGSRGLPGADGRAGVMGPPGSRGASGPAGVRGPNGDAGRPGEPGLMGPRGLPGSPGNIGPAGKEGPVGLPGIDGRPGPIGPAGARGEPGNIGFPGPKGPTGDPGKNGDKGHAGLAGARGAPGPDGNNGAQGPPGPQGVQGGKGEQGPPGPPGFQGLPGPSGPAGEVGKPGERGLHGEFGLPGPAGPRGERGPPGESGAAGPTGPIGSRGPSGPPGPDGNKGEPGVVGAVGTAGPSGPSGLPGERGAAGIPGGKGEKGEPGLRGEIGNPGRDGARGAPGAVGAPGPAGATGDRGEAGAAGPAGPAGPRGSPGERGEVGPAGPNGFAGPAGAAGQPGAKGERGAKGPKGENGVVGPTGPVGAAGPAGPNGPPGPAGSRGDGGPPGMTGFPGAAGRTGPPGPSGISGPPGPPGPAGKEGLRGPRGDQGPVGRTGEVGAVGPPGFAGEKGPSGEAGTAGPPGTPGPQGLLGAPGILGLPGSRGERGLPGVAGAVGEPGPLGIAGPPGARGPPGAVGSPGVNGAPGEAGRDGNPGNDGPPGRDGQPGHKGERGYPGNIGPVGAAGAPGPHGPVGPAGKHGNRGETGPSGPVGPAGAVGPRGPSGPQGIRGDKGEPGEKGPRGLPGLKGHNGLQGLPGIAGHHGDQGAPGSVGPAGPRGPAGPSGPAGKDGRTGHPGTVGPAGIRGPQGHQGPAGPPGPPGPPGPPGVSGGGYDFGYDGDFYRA
Experimental: An additional 90 μL is reserved in a HPLC glass vial as a measure of the total concentration.

Binder	% bound
TWQCSGNQKWSCEWF (disulfide 4-12 (inferred)) [SEQ ID NO: 6]	20%
DWTCSGDEYTWHCNYE (disulfide 4-13 (inferred)) [SEQ ID NO: 17]	78%
DWTCYGDEYTWHCNYE (disulfide 4-13 (inferred)) [SEQ ID NO: 15]	83%
DWTCSGDEYRWHCNYE (disulfide 4-13 (inferred)) [SEQ ID NO: 19]	70%
DWTCSGDEYYWHCNYE (disulfide 4-13 (inferred)) [SEQ ID NO: 16]	83%
GWDCQGTDNIWECVRK (disulfide 4-13 (inferred)) [SEQ ID NO: 30]	16%
AWDCSGNIPTWYCRRL (disulfide 4-13 (inferred)) [SEQ ID NO: 23]	44%
TWACGWTTTGWDNCRWI (disulfide 4-14 (inferred)) [SEQ ID NO: 92]	34%
NWYCTGTKSWECFWK (disulfide 4-12 (inferred)) [SEQ ID NO: 7]	11%
LTVCHPPYYGRCNFV (disulfide 4-12 (inferred)) [SEQ ID NO: 10]	9%
WQLCSSRNDHVAYCFVS (disulfide 4-14 (inferred)) [SEQ ID NO: 96]	17%
NWKCWGVVKWECIWA (disulfide 4-12 (inferred)) [SEQ ID NO: 5]	24%
WWGCRQGTGEHWSHCMWF (disulfide 4-15 (inferred)) [SEQ ID NO: 100]	67%
WTDCQWMDEQLWTCRWD (disulfide 4-14 (inferred)) [SEQ ID NO: 94]	21%
AKKCWYNDGGHLRCRTL (disulfide 4-14 (inferred)) [SEQ ID NO: 99]	3%
TWACGWTTTGWDNCRWI (disulfide 4-14 (inferred)) [SEQ ID NO: 90]	34%

Next, values leading:

% bound	Binder
7%	PMICHAPYVGKCNFL (disulfide 4-12 (inferred)) [SEQ ID NO: 12]
16%	DWICHGDFDTWKCDLQ (disulfide 4-13 (inferred)) [SEQ ID NO: 29]
78%	DWTCSGDEYTWYCNYE (disulfide 4-13 (inferred)) [SEQ ID NO: 18]
83%	DWTCRGDEYTWHCNYE (disulfide 4-13 (inferred)) [SEQ ID NO: 14]
1%	KWHCELDSHMEWSCSGH (disulfide 4-14 (inferred)) [SEQ ID NO: 89]
25%	WRCDGDAHDWHCDWF (disulfide 3-12 (inferred)) [SEQ ID NO: 26]
39%	IWLCTGGAATWNCKFD (disulfide 4-13 (inferred)) [SEQ ID NO: 25]
55%	DWECHGNEFEWNCLMR (disulfide 4-13 (inferred)) [SEQ ID NO: 22]
57%	DWTCVGDHKTWKCNFH (disulfide 4-13 (inferred)) [SEQ ID NO: 21]
5%	WWACQKGQHDWEKCHWL (disulfide 4-14 (inferred)) [SEQ ID NO: 93]
1%	FWTCMRDQVGEWHCGTE (disulfide 4-14 (inferred)) [SEQ ID NO: 88]
12%	NWVCSGDHADWSCALI (disulfide 4-13 (inferred)) [SEQ ID NO: 32]
56%	WWTCHMTWSGQWDSCKWH (disulfide 4-15 (inferred)) [SEQ ID NO: 101]
7%	TWNCYGVTEWHCYMI (disulfide 4-12 (inferred)) [SEQ ID NO: 9]
13%	WISCESSEEKISYCWRA (disulfide 4-14 (inferred)) [SEQ ID NO: 97]
31%	WAYCMTDPSGKYRYCQNW (disulfide 4-15 (inferred)) [SEQ ID NO: 102]
20%	SWICTGDNIDWNCRFA (disulfide 4-13 (inferred)) [SEQ ID NO: 28]
2%	YPACDDQTHLWNLACWPA (disulfide 4-15 (inferred)) [SEQ ID NO: 103]
15%	GWVCGGDHTTWECHLQ (disulfide 4-13 (inferred)) [SEQ ID NO: 31]
5%	WTDCQWMDEQIWTCRWD (disulfide 4-14 (inferred)) [SEQ ID NO: 95]
9%	PLVCHPPYSGSCSLH (disulfide 4-12 (inferred)) [SEQ ID NO: 11]
24%	SWHCFGDNENWMCNLR (disulfide 4-13 (inferred)) [SEQ ID NO: 27]
64%	PWYCSGDHLDWKCIYQ (disulfide 4-13 (inferred)) [SEQ ID NO: 20]
45%	TWMCVDPPLWRCWVQ (disulfide 4-12 (inferred)) [SEQ ID NO: 4]
43%	EWLCVGDSLKWYCKHS (disulfide 4-13 (inferred)) [SEQ ID NO: 24]
